Assay results: the supplement of paper PMC9233669
Variants at the floor of the assay were thinned out.

Experiments:
biotinyl-Trp-oxazolone = assay: self-aminoacylation, catalytic enhancement (BWO) (fold over background); higher = more active; k-Seq, kA / k0A0; sequences stand for … in GGGAAUGGAUCCACAUCUACGAAUUC…UUCACUGCAGACUUGACGAAGCUG
Outline: (§1)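 Mutagenized RNA pools with a 21-nt variable region (0.43 μM) reacted with each biotinyl-aminoacyl-oxazolone at 2–1250 μM. Reactions ran in 50 μL HEPES/NaCl/KCl/MgCl2/CaCl2 buffer with 5% acetonitrile, pH 6.9–7.0, for 90 minutes at room temperature. Streptavidin-captured RNA was quantified by triplicate qPCR and Illumina sequencing, and per-sequence fraction reacted was fit to a pseudo-first-order model with 1000 bootstraps. Catalytic enhancement is median kA divided by the uncatalyzed rate, the low-activity peak of a bimodal Gaussian fit.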

biotinyl-Ile-oxazolone = assay: self-aminoacylation, catalytic enhancement (BIO) (fold over background); higher = more active; k-Seq, kA / k0A0; sequences stand for … in GGGAAUGGAUCCACAUCUACGAAUUC…UUCACUGCAGACUUGACGAAGCUG
Outline: as §1

biotinyl-Met-oxazolone = assay: self-aminoacylation, catalytic enhancement (BMO) (fold over background); higher = more active; k-Seq, kA / k0A0; sequences stand for … in GGGAAUGGAUCCACAUCUACGAAUUC…UUCACUGCAGACUUGACGAAGCUG
Outline: as §1

biotinyl-Leu-oxazolone = assay: self-aminoacylation, catalytic enhancement (BLO) (fold over background); higher = more active; k-Seq, kA / k0A0; sequences stand for … in GGGAAUGGAUCCACAUCUACGAAUUC…UUCACUGCAGACUUGACGAAGCUG
Outline: as §1

biotinyl-Phe-oxazolone = assay: self-aminoacylation, catalytic enhancement (BFO) (fold over background); higher = more active; k-Seq, kA / k0A0; sequences stand for … in GGGAAUGGAUCCACAUCUACGAAUUC…UUCACUGCAGACUUGACGAAGCUG
Outline: as §1

biotinyl-Val-oxazolone = assay: self-aminoacylation, catalytic enhancement (BVO) (fold over background); higher = more active; k-Seq, kA / k0A0; sequences stand for … in GGGAAUGGAUCCACAUCUACGAAUUC…UUCACUGCAGACUUGACGAAGCUG
Outline: as §1

Sequence | self-aminoacylation (biotinyl-Trp-oxazolone) | self-aminoacylation (biotinyl-Ile-oxazolone) | self-aminoacylation (biotinyl-Met-oxazolone) | self-aminoacylation (biotinyl-Leu-oxazolone) | self-aminoacylation (biotinyl-Phe-oxazolone) | self-aminoacylation (biotinyl-Val-oxazolone)
CUACUUCAAACCAGCGGUCUG [Fam1A.1 aminoacylation ribozyme variant] | 0.677 | 0.921 | 0.722 | 1.09 | 0.715 | 1.13
CUACUUCAAACCAUCGGACUG [Fam1A.1 aminoacylation ribozyme variant] | 0.444 | 0.8 | 0.669 | 0.747 | 0.578 | 0.873
CUACUUCAAACCAUCGGUCCG [Fam1A.1 aminoacylation ribozyme variant] | 0.99 | 0.761 | 0.868 | 0.996 | 0.607 | 0.922
CUACUUCAAACGACCGGUCUG [Fam1A.1 aminoacylation ribozyme variant] | 0.229 | 0.601 | 0.698 | 0.621 | 0.832 | 0.74
CUACUUCAAACGAUCCGUCUG [Fam1A.1 aminoacylation ribozyme variant] | 0.755 | 0.783 | 0.958 | 0.787 | 0.594 | 0.808
CUACUUCAAACGAUCGCUCUG [Fam1A.1 aminoacylation ribozyme variant] | 0.678 | 0.842 | 0.689 | 0.654 | 1.11 | 0.838
CUACUUCAAACGAUCGGGCUG [Fam1A.1 aminoacylation ribozyme variant] | 1.28 | 1.49 | 1.09 | 1.23 | 1.11 | 1.45
CUACUUCAAACGAUCGGUCUA [Fam1A.1 aminoacylation ribozyme variant] | 0.594 | 0.757 | 0.744 | 0.615 | 0.678 | 0.731
CUACUUCAAACGAUGGGUCUG [Fam1A.1 aminoacylation ribozyme variant] | 0.62 | 0.746 | 0.58 | 0.764 | 0.674 | 1
CUACUUCAAACUAGCGGUCUG [Fam1A.1 aminoacylation ribozyme variant] | 0.732 | 0.932 | 0.547 | 0.79 | 1.25 | 0.803
CUACUUCAAAGAACCGGUCUG [Fam1A.1 aminoacylation ribozyme variant] | 0.734 | 0.994 | 0.715 | 0.847 | 0.687 | 0.815
CUACUUCAAAGAAGCGGUCUG [Fam1A.1 aminoacylation ribozyme variant] | 0.832 | 1.09 | 1.01 | 0.82 | 1.17 | 0.988
CUACUUCAAAGAAUCCGUCUG [Fam1A.1 aminoacylation ribozyme variant] | 0.738 | 1.06 | 0.942 | 1.07 | 0.744 | 0.915
CUACUUCAAAGAAUCGGACUG [Fam1A.1 aminoacylation ribozyme variant] | 0.932 | 0.992 | 0.91 | 0.818 | 1.29 | 0.808
CUACUUCAAAGUAUCGGUCUG [Fam1A.1 aminoacylation ribozyme variant] | 0.979 | 0.979 | 0.824 | 0.941 | 1.44 | 0.975
CUACUUCAAAUAAUCGAUCUG [Fam1A.1 aminoacylation ribozyme variant] | 0.839 | 0.669 | 0.534 | 0.495 | 1.94 | 0.592
CUACUUCAAAUAAUCGGUCCG [Fam1A.1 aminoacylation ribozyme variant] | 1.76 | 0.585 | 0.599 | 0.654 | 2.68 | 0.657
CUACUUCAACCAAUAGGUCUG [Fam1A.1 aminoacylation ribozyme variant] | 0.753 | 0.947 | 0.703 | 0.743 | 1.05 | 0.777
CUACUUCAACCAAUCGGGCUG [Fam1A.1 aminoacylation ribozyme variant] | 6.74 | 1.71 | 1.24 | 1.68 | 7.63 | 1.22
CUACUUCAACCAAUCGGUCUC [Fam1A.1 aminoacylation ribozyme variant] | 12.9 | 0.904 | 0.76 | 1.19 | 23.8 | 0.98
CUACUUCAACCAAUCGGUCUU [Fam1A.1 aminoacylation ribozyme variant] | 8.43 | 1.02 | 0.975 | 1.32 | 16 | 0.934
CUACUUCAAGCAAUCGGUCUU [Fam1A.1 aminoacylation ribozyme variant] | 4.63 | 1.07 | 0.87 | 0.97 | 6.92 | 1.06
CUACUUCAAGCACUCGGUCUG [Fam1A.1 aminoacylation ribozyme variant] | 1.28 | 1.23 | 0.971 | 1.17 | 2.08 | 1.3
CUACUUCAAGCUAUCGGUCUG [Fam1A.1 aminoacylation ribozyme variant] | 0.43 | 0.839 | 0.942 | 0.689 | 0.617 | 0.892
CUACUUCAAUCAACCGGUCUG [Fam1A.1 aminoacylation ribozyme variant] | 0.663 | 0.925 | 0.525 | 0.729 | 0.9 | 0.806
CUACUUCAAUCAUUCGGUCUG [Fam1A.1 aminoacylation ribozyme variant] | 1.13 | 1.1 | 0.805 | 0.896 | 0.652 | 0.992

Sequence | self-aminoacylation (biotinyl-Trp-oxazolone) | self-aminoacylation (biotinyl-Ile-oxazolone) | self-aminoacylation (biotinyl-Met-oxazolone) | self-aminoacylation (biotinyl-Leu-oxazolone) | self-aminoacylation (biotinyl-Phe-oxazolone) | self-aminoacylation (biotinyl-Val-oxazolone)
CUACUUCACAAAAUCGGUCUG [Fam1A.1 aminoacylation ribozyme variant] | 0.739 | 0.985 | 0.863 | 0.823 | 0.608 | 0.831
CUACUUCACACAACCGGUCUG [Fam1A.1 aminoacylation ribozyme variant] | 0.778 | 0.858 | 1.2 | 0.892 | 1.07 | 1.01
CUACUUCACACAAUCGAUCUG [Fam1A.1 aminoacylation ribozyme variant] | 0.691 | 0.888 | 0.686 | 0.784 | 0.726 | 0.677
CUACUUCACAGAAUCGGUCUG [Fam1A.1 aminoacylation ribozyme variant] | 0.917 | 1.03 | 1.05 | 1.1 | 1.11 | 1.02
CUACUUCAGACAAUCCGUCUG [Fam1A.1 aminoacylation ribozyme variant] | 1.23 | 0.902 | 0.675 | 0.963 | 1.86 | 0.826
CUACUUCAGACAAUCGGUCCG [Fam1A.1 aminoacylation ribozyme variant] | 1.38 | 0.811 | 1 | 1.01 | 0.81 | 0.695
CUACUUCAGACAAUCGGUCUU [Fam1A.1 aminoacylation ribozyme variant] | 0.663 | 0.967 | 0.904 | 0.919 | 1.11 | 0.961
CUACUUCAGACGAUCGGUCUG [Fam1A.1 aminoacylation ribozyme variant] | 0.788 | 0.727 | 1.24 | 0.954 | 0.484 | 1.01
CUACUUCAUACAACCGGUCUG [Fam1A.1 aminoacylation ribozyme variant] | 0.415 | 0.925 | 0.621 | 0.751 | 0.504 | 0.84
CUACUUCCAACAAUCGGGCUG [Fam1A.1 aminoacylation ribozyme variant] | 0.982 | 1.59 | 2.11 | 1.28 | 0.889 | 1.27
CUACUUCCAACAAUGGGUCUG [Fam1A.1 aminoacylation ribozyme variant] | 0.789 | 0.951 | 0.932 | 0.795 | 0.635 | 0.835
CUACUUCCAACAAUUGGUCUG [Fam1A.1 aminoacylation ribozyme variant] | 0.536 | 0.817 | 0.718 | 0.776 | 0.55 | 0.839
CUACUUCCACCAAUCGGUCUG [Fam1A.1 aminoacylation ribozyme variant] | 0.387 | 0.912 | 0.684 | 0.793 | 0.84 | 0.877
CUACUUCCUACAAUCGGUCUG [Fam1A.1 aminoacylation ribozyme variant] | 0.511 | 0.76 | 0.835 | 0.671 | 0.51 | 0.801
CUACUUCGAACAAUAGGUCUG [Fam1A.1 aminoacylation ribozyme variant] | 0.421 | 0.547 | 0.471 | 0.461 | 0.503 | 0.745
CUACUUCGACCAAUCGGUCUG [Fam1A.1 aminoacylation ribozyme variant] | 0.379 | 0.854 | 0.856 | 0.979 | 0.674 | 0.908
CUACUUCGGACAAUCGGUCUG [Fam1A.1 aminoacylation ribozyme variant] | 0.75 | 0.815 | 0.928 | 0.867 | 0.631 | 0.923
CUACUUCUAACAAUCGCUCUG [Fam1A.1 aminoacylation ribozyme variant] | 0.498 | 0.612 | 0.553 | 0.602 | 0.385 | 0.559
CUACUUCUAACAAUCGGUCCG [Fam1A.1 aminoacylation ribozyme variant] | 0.63 | 0.708 | 0.765 | 0.799 | 0.505 | 0.621
CUACUUCUAACAGUCGGUCUG [Fam1A.1 aminoacylation ribozyme variant] | 0.349 | 0.521 | 0.672 | 0.611 | 0.402 | 0.597
CUACUUGAAACAAUCGGACUG [Fam1A.1 aminoacylation ribozyme variant] | 0.651 | 0.922 | 0.782 | 0.944 | 0.551 | 0.786
CUACUUGAAACAAUCGGCCUG [Fam1A.1 aminoacylation ribozyme variant] | 1.38 | 1.84 | 1.96 | 1.45 | 0.788 | 1.68
CUACUUGAAACAAUCGGUCUC [Fam1A.1 aminoacylation ribozyme variant] | 0.561 | 0.789 | 0.827 | 0.657 | 0.658 | 0.688
CUACUUGAAACAAUCGGUUUG [Fam1A.1 aminoacylation ribozyme variant] | 0.944 | 0.907 | 0.938 | 0.89 | 0.458 | 0.77
CUACUUGAAACUAUCGGUCUG [Fam1A.1 aminoacylation ribozyme variant] | 0.685 | 1.03 | 0.986 | 0.941 | 0.599 | 0.975
